# Data as given in IntAct's records for PubMed 12819209.
# B1: Prolactin receptor (Homo sapiens), P16471 (parent)
# chain: MKENVASATVFTLLLFLNTCLLNGQLPPGKPEIFKCRSPNKETFTCWWRPGTDGGLPTNYSLTYHREGETLMHECPDYITGGPNSCHFGKQYTSMWRTYIMMVNATNQMGSSFSDELYVDVTYIVQPDPPLELAVEVKQPEDRKPYLWIKWSPPTLIDLKTGWFTLLYEIRLKPEKAAEWEIHFAGQQTEFKILSLHPGQKYLVQVRCKPDHGYWSAWSPATFIQIPSDFTMNDTTVWISVAVLSAVICLIIVWAVALKGYSMVTCIFPPVPGPKIKGFDAHLLEKGKSEELLSALGCQDFPPTSDYEDLLVEYLEVDDSEDQHLMSVHSKEHPSQGMKPTYLDPDTDSGRGSCDSPSLLSEKCEEPQANPSTFYDPEVIEKPENPETTHTWDPQCISMEGKIPYFHAGGSKCSTWPLPQPSQHNPRSSYHNITDVCELAVGPAGAPATLLNEAGKDALKSSQTIKSREEGKATQQREVESFHSETDQDTPWLLPQEKTPFGSAKPLDYVEIHKVNKDGALSLLPKQRENSGKPKKPGTPENNKEYAKVSGVMDNNILVLVPDPHAKNVACFEESAKEAPPSLEQNQAEKALANFTATSSKCRLQLGGLDYLDPACFTHSFH
# Variants of: B1
# Details: with 1433z_human YWHAZ
row,Variant,effect of a mutation on the interaction
1,T415A,decreasing interaction strength
2,C413A;S414A;T415A,decreasing interaction strength
